To fix the notation:
B1: GFP-Lpd (Lamellipodin, wild type), Q70E73 Y366F; Y426F; Y456F; Y466F; Y481F; Y510F (protein)
chain: MEQLSDEEIDHGAEEDSDKEDQDLDKMFGAWLGELDKLTQSLDSDKPMEPVKRSPLRQETNMANFSYRFSIYNLNEALNQGETVDLDALMADLCSIEQELSSIGSGNSKRQITETKATQKLPVSRHTLKHGTLKGLSSSSNRIAKPSHASYSLDDVTAQLEQASLSMDEAAQQSVLEDTKPLVTNQHRRTASAGTVSDAEVHSISNSSHSSITSAASSMDSLDIDKVTRPQELDLTHQGQPITEEEQAAKLKAEKIRVALEKIKEAQVKKLVIRVHMSDDSSKTMMVDERQTVRQVLDNLMDKSHCGYSLDWSLVETVSELQMERIFEDHENLVENLLNWTRDSQNKLIFMERIEKYALFKNPQNFLLGKKETAEMADRNKEVLLEECFCGSSVTVPEIEGVLWLKDDGKKSWKKRYFLLRASGIFYVPKGKAKVSRDLVCFLQLDHVNVYYGQDFRNKYKAPTDFCLVLKHPQIQKKSQFIKYLCCDDVRTLHQWVNGIRIAKYGKQLFMNYQEALKRTESAYDWTSLSSSSIKSGSSSSSIPESQSNHSNQSDSGVSDTQPAGHVRSQSIVSSVFSEAWKRGTQLEESSKARMESMNRPYTSLVPPLSPQPKIVTPYTASQPSPPLPPPPPPPPPPPPPPPPPPPPLPSQSAPSAGSAAPMFVKYSTITRLQNASQHSGALFKPPTPPVMQSQSVKPQILVPPNGVVPPPPPPPPPPTPGSAMAQLKPAPCAPSLPQFSAPPPPLKIHQVQHITQVAPPTPPPPPPIPAPLPPQAPPKPLVTIPAPTSTKTVAPVVTQAAPPTPTPPVPPAKKQPAFPASYIPPSPPTPPVPVPPPTLPKQQSFCAKPPPSPLSPVPSVVKQIASQFPPPPTPPAMESQPLKPVPANVAPQSPPAVKAKPKWQPSSIPVPSPDFPPPPPESSLVFPPPPPSPVPAPPPPPPPTASPTPDKSGSPGKKTSKTSSPGGKKPPPTPQRNSSIKSSSGAEHPEPKRPSVDSLVSKFTPPAESGSPSKETLPPPAAPPKPGKLNLSGVNLPGVLQQGCVSAKAPVLSGRGKDSVVEFPSPPSDSDFPPPPPETELPLPPIEIPAVFSGNTSPKVAVVNPQPQQWSKMSVKKAPPPTRPKRNDSTRLTQAEISEQPTMATVVPQVPTSPKSSLSVQPGFLADLNRTLQRKSITRHGSLSSRMSRAEPTATMDDMALPPPPPELLSDQQKAGYGGSHISGYATLRRGPPPAPPKRDQNTKLSRDW
B2: GFP-Lpd (Lamellipodin, wild type), Q70E73 Y366F; Y426F; Y456F; Y466F; Y481F; Y510F; Y513F; Y1226F (protein)
chain: B1 chain with Y513F, Y1226F
B3: GFP-Lpd (Lamellipodin, wild type), Q70E73 Y426F; Y456F; Y513F; Y1226F (protein)
chain: B1 chain with F366Y, F466Y, F481Y, F510Y, Y513F, Y1226F

Numbering of substitutions follows the chain as printed. In names and notes the source's numbering stands.

The target in the assay is Myc-tagged Scar/WAVE complex (Myc-Pir121, Myc-Nap1, Myc-Abi1d, Myc-WAVE2), Q96F07;Q9Y2A7;Q9Y6W5. The experiment in a line: co-immunoprecipitation, quantified western blot band intensities. Particulars: chain shown with the change; HEK293FT cells; n=4; Scar/WAVE2 normalized against the immunoprecipitated Lpd; parent: est. 100; read off a plot. (In western blotting, separated proteins are transferred to a membrane and probed.)
Myc-tagged Scar/WAVE complex (Myc-Pir121, Myc-Nap1, Myc-Abi1d, Myc-WAVE2), Q96F07;Q9Y2A7;Q9Y6W5, sequence (chain, as listed by the source, chain 1 of 3): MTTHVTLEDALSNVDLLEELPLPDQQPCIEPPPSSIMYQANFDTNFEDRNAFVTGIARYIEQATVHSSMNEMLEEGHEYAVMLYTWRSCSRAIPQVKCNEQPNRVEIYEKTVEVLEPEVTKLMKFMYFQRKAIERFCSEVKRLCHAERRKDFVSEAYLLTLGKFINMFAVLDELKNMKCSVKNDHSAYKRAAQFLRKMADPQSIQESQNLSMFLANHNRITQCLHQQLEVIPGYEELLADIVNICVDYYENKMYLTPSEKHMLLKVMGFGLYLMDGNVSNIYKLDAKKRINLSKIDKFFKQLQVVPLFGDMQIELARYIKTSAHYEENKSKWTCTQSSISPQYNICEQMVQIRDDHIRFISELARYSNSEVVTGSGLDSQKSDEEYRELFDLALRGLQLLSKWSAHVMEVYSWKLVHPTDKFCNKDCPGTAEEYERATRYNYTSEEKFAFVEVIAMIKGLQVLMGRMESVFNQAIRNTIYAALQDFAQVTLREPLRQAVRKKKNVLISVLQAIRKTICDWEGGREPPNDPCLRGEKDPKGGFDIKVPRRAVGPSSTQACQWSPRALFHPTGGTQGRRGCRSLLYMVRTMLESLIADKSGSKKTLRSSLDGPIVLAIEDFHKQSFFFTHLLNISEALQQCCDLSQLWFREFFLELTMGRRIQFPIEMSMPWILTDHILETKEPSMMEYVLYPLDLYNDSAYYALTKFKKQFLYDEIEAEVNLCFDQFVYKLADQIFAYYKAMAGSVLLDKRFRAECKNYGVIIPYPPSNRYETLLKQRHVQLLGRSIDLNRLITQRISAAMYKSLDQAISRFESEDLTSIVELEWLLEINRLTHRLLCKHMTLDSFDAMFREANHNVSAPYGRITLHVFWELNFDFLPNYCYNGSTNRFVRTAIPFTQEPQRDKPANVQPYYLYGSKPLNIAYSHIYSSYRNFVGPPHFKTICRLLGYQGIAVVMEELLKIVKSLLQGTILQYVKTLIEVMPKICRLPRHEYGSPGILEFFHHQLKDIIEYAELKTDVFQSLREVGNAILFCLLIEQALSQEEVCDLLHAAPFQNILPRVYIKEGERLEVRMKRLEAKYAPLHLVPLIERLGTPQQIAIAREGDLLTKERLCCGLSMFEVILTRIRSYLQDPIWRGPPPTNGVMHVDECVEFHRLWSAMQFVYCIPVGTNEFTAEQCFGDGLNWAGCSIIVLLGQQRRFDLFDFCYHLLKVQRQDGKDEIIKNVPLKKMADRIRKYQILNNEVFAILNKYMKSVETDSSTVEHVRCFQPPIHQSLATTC
Myc-tagged Scar/WAVE complex (Myc-Pir121, Myc-Nap1, Myc-Abi1d, Myc-WAVE2), Q96F07;Q9Y2A7;Q9Y6W5, sequence (chain, as listed by the source, chain 2 of 3): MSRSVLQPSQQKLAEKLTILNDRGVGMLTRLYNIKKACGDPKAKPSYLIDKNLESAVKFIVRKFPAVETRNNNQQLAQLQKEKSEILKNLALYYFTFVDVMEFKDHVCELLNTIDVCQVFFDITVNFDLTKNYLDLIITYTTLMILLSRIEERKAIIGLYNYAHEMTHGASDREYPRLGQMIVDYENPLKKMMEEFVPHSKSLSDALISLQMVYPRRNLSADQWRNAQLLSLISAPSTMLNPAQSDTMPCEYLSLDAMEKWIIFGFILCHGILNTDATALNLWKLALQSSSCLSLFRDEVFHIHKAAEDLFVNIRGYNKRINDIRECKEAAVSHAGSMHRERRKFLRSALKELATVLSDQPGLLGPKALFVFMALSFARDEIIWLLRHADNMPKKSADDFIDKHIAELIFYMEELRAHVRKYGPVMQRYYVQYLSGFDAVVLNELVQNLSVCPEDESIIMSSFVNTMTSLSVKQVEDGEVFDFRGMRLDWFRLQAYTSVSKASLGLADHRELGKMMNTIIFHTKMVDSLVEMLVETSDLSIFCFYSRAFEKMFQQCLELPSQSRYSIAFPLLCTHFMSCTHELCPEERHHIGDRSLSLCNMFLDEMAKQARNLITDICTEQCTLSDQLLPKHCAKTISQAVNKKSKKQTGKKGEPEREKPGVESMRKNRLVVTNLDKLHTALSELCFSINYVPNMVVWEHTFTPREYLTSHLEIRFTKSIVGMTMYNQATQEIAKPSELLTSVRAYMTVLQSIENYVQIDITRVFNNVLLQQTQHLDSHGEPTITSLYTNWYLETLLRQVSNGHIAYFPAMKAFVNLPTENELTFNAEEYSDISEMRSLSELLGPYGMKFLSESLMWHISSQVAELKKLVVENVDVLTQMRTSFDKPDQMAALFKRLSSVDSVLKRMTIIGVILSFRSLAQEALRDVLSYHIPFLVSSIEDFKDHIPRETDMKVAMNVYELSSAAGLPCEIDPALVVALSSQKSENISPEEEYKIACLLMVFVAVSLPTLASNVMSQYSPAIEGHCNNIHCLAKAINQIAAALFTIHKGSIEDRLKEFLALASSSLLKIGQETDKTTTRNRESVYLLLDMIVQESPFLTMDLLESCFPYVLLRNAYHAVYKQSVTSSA
Myc-tagged Scar/WAVE complex (Myc-Pir121, Myc-Nap1, Myc-Abi1d, Myc-WAVE2), Q96F07;Q9Y2A7;Q9Y6W5, sequence (chain, as listed by the source, chain 3 of 3): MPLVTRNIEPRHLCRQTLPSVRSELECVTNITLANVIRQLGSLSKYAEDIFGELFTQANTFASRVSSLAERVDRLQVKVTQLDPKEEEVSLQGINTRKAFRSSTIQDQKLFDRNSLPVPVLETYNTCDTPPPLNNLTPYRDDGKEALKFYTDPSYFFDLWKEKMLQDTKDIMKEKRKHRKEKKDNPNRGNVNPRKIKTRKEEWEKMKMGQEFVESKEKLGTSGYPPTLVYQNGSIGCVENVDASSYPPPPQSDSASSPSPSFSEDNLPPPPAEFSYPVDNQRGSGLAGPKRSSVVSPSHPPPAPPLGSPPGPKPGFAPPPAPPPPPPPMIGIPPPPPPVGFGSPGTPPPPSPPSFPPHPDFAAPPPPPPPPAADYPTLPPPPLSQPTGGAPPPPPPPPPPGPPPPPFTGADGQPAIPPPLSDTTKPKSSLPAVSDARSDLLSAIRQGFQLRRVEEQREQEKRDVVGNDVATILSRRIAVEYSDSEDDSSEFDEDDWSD
In the case of B1, the percent of parent (% co-IP Lpd-WAVE2) stood at 39.

Take B2: the percent of parent (% co-IP Lpd-WAVE2) was found to be 31.

Consider B3, for which the percent of parent (% co-IP Lpd-WAVE2) came out at 41.

The values above are taken from PMC5031503.
